± gives the standard deviation of the averaged measurements.
Legend:
Saccharomyces cerevisiae [1] = test: protein stability index of tFT-peptide fusion (C-terminal peptide) (PSI (0-1 scale)); higher = more stable (slower turnover)
Procedure: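 MPS profiling in S. cerevisiae of the tFT-X12 degron library: putative degron peptides plus stable controls, 12 aa, fused to the C-terminus of a sfGFP-mCherry timer. Cells are FACS-sorted into 8 mCherry/sfGFP bins and deep-sequenced. PSI runs from 0 (unstable) to 1 (stable). Backgrounds are wild type, das1Δ and doa10Δ at 30 °C, and wild type, das1Δ, cdc34-1 and cdc53-1 at 37 °C; 2-3 technical replicates each.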

Saccharomyces cerevisiae [2] = test: as above; settings: genetic background: wild type; temperature: 30 C
[3] = genetic background: cdc34-1, temperature: 37 C
[4] = genetic background: cdc53-1, temperature: 37 C
[5] = genetic background: das1 deletion, temperature: 30 C
[6] = genetic background: das1 deletion, temperature: 37 C
[7] = genetic background: doa10 deletion, temperature: 30 C
[8] = genetic background: wild type, temperature: 30 C
[9] = genetic background: wild type, temperature: 37 C
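Further: PSI is a weighted mean of sequencing reads over stability bins, variants kept only with over 10 reads, mCherry proximal and sfGFP distal, peptide attached via GGGS linker.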

Sequence | protein stability index (Saccharomyces cerevisiae [1]; [3]) | protein stability index (Saccharomyces cerevisiae [1]; [4]) | protein stability index (Saccharomyces cerevisiae [1]; [5]) | protein stability index (Saccharomyces cerevisiae [1]; [6]) | protein stability index (Saccharomyces cerevisiae [1]; [7]) | protein stability index (Saccharomyces cerevisiae [1]; [8]) | protein stability index (Saccharomyces cerevisiae [1]; [9]) | protein stability index (Saccharomyces cerevisiae [2])
SILVSIFILAMQ | 0.205 ± 0.029 | 0.311 ± 0.0043 | 0.229 ± 0.043 | 0.412 ± 0.0063 | 0.199 ± 0.008 | 0.219 ± 0.048 | 0.355 ± 0.015 | 0.189 ± 0.019
PPHRTLLQLRTN | 0.599 ± 0.072 | 0.728 ± 0.035 | 0.661 ± 0.022 | 0.727 ± 0.0085 | 0.169 ± 0.021 | 0.164 ± 0.02 | 0.313 ± 0.015 | 0.343 ± 0.18
LFHSIPRLLLLK | 0.0746 ± 0.013 | 0.0485 ± 0.0081 | 0.23 ± 0.087 | 0.27 ± 0.04 | 0.627 ± 0.0064 | 0.241 ± 0.033 | 0.218 ± 0.041 | 0.367 ± 0.053
PHPPRPPCPPIL | 0.673 ± 0.041 | 0.736 ± 0.015 | 0.674 ± 0.0068 | 0.721 ± 0.0074 | 0.699 ± 0.037 | 0.678 ± 0.015 | 0.699 ± 0.0093 | 0.74 ± 0.019
MIVAIQLVDHPP | 0.459 ± 0.033 | 0.547 ± 0.0094 | 0.414 ± 0.013 | 0.522 ± 0.0075 | 0.409 ± 0.016 | 0.426 ± 0.028 | 0.509 ± 0.034 | 0.484 ± 0.044
VLLCASPMLAVV | 0.343 ± 0.028 | 0.356 ± 0.022 | 0.289 ± 0.024 | 0.423 ± 0.0087 | 0.249 ± 0.0027 | 0.297 ± 0.011 | 0.39 ± 0.0039 | 0.393 ± 0.03
VVGVVVCWGCGW | 0.493 ± 0.02 | 0.555 ± 0.057 | 0.393 ± 0.024 | 0.587 ± 0.0062 | 0.369 ± 0.021 | 0.397 ± 0.018 | 0.535 ± 0.0068 | 0.45 ± 0.023
DAGSSYRFFRFI | 0.693 ± 0.071 | 0.755 ± 0.011 | 0.661 ± 0.011 | 0.739 ± 0.0078 | 0.315 ± 0.0095 | 0.344 ± 0.01 | 0.578 ± 0.0081 | 0.425 ± 0.022
FGGFYGRRVLII | 0.62024 ± 0.00039 | 0.682 ± 0.0097 | 0.544 ± 0.023 | 0.6748 ± 0.0054 | 0.182 ± 0.0081 | 0.209 ± 0.0024 | 0.437 ± 0.0092 | 0.327 ± 0.04
YLRVRRPGSALV | 0.7087 ± 0.0013 | 0.769 ± 0.028 | 0.63 ± 0.022 | 0.7643 ± 0.0014 | 0.629 ± 0.035 | 0.624 ± 0.0081 | 0.7277 ± 0.0017 | 0.654 ± 0.23
LRSLLIIYLLIF | 0.2561 ± 0.0023 | 0.292 ± 0.025 | 0.253 ± 0.038 | 0.404 ± 0.0084 | 0.203 ± 0.0043 | 0.192 ± 0.0044 | 0.31 ± 0.012 | 0.279 ± 0.039
VSLLVFVVSSRV | 0.345 ± 0.034 | 0.418 ± 0.0047 | 0.262 ± 0.031 | 0.476 ± 0.016 | 0.223 ± 0.0068 | 0.255 ± 0.022 | 0.444 ± 0.013 | 0.3816 ± 0.0022
PPRCLLPPPSRS | 0.652 ± 0.034 | 0.699 ± 0.014 | 0.694 ± 0.015 | 0.693 ± 0.0092 | 0.72 ± 0.05 | 0.692 ± 0.012 | 0.678 ± 0.009 | 0.79 ± 0.015
LRCRAATSRTVS | 0.69 ± 0.029 | 0.738 ± 0.015 | 0.6731 ± 0.002 | 0.726 ± 0.03 | 0.391 ± 0.015 | 0.446 ± 0.025 | 0.643 ± 0.0087 | 0.504 ± 0.04
FFVEKRVFFGII | 0.604 ± 0.017 | 0.733 ± 0.015 | 0.593 ± 0.026 | 0.738 ± 0.029 | 0.197 ± 0.013 | 0.242 ± 0.015 | 0.408 ± 0.018 | 0.369 ± 0.009
SSLTFTFAILLY | 0.19 ± 0.026 | 0.188 ± 0.011 | 0.207 ± 0.025 | 0.339 ± 0.015 | 0.369 ± 0.018 | 0.219 ± 0.025 | 0.312 ± 0.052 | 0.339 ± 0.011
GVYFIGISRCVC | 0.559 ± 0.006 | 0.642 ± 0.037 | 0.529 ± 0.029 | 0.669 ± 0.0011 | 0.175 ± 0.018 | 0.208 ± 0.025 | 0.36 ± 0.015 | 0.307 ± 0.0065
LCRCPVGVFVLL | 0.516 ± 0.036 | 0.549 ± 0.031 | 0.39 ± 0.038 | 0.5395 ± 0.0021 | 0.356 ± 0.033 | 0.303 ± 0.035 | 0.469 ± 0.017 | 0.362 ± 0.012
VCWVYESWKCLA | 0.438 ± 0.038 | 0.571 ± 0.043 | 0.536 ± 0.027 | 0.672 ± 0.0075 | 0.0888 ± 0.014 | 0.103 ± 0.0097 | 0.107 ± 0.013 | 0.168 ± 0.026
GVCWCVLFVVGC | 0.312 ± 0.012 | 0.417 ± 0.059 | 0.271 ± 0.027 | 0.484 ± 0.006 | 0.226 ± 0.012 | 0.259 ± 0.02 | 0.428 ± 0.052 | 0.359 ± 0.013

Sequence | protein stability index (Saccharomyces cerevisiae [1]; [3]) | protein stability index (Saccharomyces cerevisiae [1]; [4]) | protein stability index (Saccharomyces cerevisiae [1]; [5]) | protein stability index (Saccharomyces cerevisiae [1]; [6]) | protein stability index (Saccharomyces cerevisiae [1]; [7]) | protein stability index (Saccharomyces cerevisiae [1]; [8]) | protein stability index (Saccharomyces cerevisiae [1]; [9]) | protein stability index (Saccharomyces cerevisiae [2])
YCILGSYRLCVG | 0.337 ± 0.037 | 0.434 ± 0.073 | 0.259 ± 0.033 | 0.447 ± 0.018 | 0.2321 ± 0.00024 | 0.252 ± 0.033 | 0.427 ± 0.012 | 0.36 ± 0.0049
KFRGMTLRNKVC | 0.545 ± 0.041 | 0.73 ± 0.047 | 0.657 ± 0.019 | 0.717 ± 0.017 | 0.093 ± 0.0025 | 0.1 ± 0.04 | 0.224 ± 0.069 | 0.267 ± 0.013
LGSYVWVFVYFW | 0.159 ± 0.022 | 0.258 ± 0.0054 | 0.155 ± 0.039 | 0.323 ± 0.01 | 0.148 ± 0.0054 | 0.151 ± 0.028 | 0.267 ± 0.025 | 0.187 ± 0.051
ILGQSVIMRIKM | 0.673 ± 0.035 | 0.7301 ± 0.0028 | 0.615 ± 0.027 | 0.7007 ± 0.00077 | 0.606 ± 0.0061 | 0.636 ± 0.02 | 0.686 ± 0.014 | 0.714 ± 0.075
LLRIFLPLLYLL | 0.203 ± 0.062 | 0.199 ± 0.011 | 0.329 ± 0.037 | 0.387 ± 0.016 | 0.218 ± 0.0076 | 0.131 ± 0.021 | 0.2 ± 0.00044 | 0.194 ± 0.019
ALSGLARFIVCH | 0.308 ± 0.0074 | 0.358 ± 0.019 | 0.272 ± 0.043 | 0.4268 ± 0.0034 | 0.2054 ± 0.0015 | 0.243 ± 0.031 | 0.392 ± 0.016 | 0.428 ± 0.026
YRNVLLVLNYWS | 0.447 ± 0.076 | 0.368 ± 0.029 | 0.428 ± 0.031 | 0.544 ± 0.0087 | 0.518 ± 0.0072 | 0.406 ± 0.022 | 0.51 ± 0.026 | 0.491 ± 0.0064
GGGHGSSCSVCD | 0.67 ± 0.035 | 0.74 ± 0.034 | 0.665 ± 0.023 | 0.69544 ± 0.00064 | 0.646 ± 0.013 | 0.645 ± 0.0097 | 0.702 ± 0.019 | 0.744 ± 0.032
LVYCWFAEYFLV | 0.323 ± 0.043 | 0.561 ± 0.011 | 0.448 ± 0.027 | 0.586 ± 0.0069 | 0.0883 ± 0.016 | 0.106 ± 0.0044 | 0.0859 ± 0.017 | 0.169 ± 0.027
HLAQYSSSLHLM | 0.657 ± 0.098 | 0.719 ± 0.011 | 0.653 ± 0.0071 | 0.731 ± 0.027 | 0.375 ± 0.022 | 0.424 ± 0.014 | 0.6165 ± 0.0024 | 0.554 ± 0.085
LSLPTPLPSPPA | 0.656 ± 0.044 | 0.695 ± 0.041 | 0.457 ± 0.027 | 0.629 ± 0.015 | 0.449 ± 0.019 | 0.456 ± 0.017 | 0.591 ± 0.0092 | 0.48 ± 0.022
AAVQVCVLLLLL | 0.366 ± 0.029 | 0.476 ± 0.032 | 0.341 ± 0.037 | 0.521 ± 0.014 | 0.302 ± 0.0072 | 0.337 ± 0.017 | 0.497 ± 0.014 | 0.414 ± 0.0057
WLPFFPLSLRGV | 0.321 ± 0.012 | 0.317 ± 0.011 | 0.412 ± 0.027 | 0.5374 ± 0.0038 | 0.63 ± 0.0096 | 0.436 ± 0.048 | 0.5 ± 0.0093 | 0.497 ± 0.2
YVCLVWHRNFFS | 0.617 ± 0.014 | 0.704 ± 0.019 | 0.605 ± 0.011 | 0.73 ± 0.048 | 0.14 ± 0.0063 | 0.155 ± 0.025 | 0.228 ± 0.076 | 0.259 ± 0.0039
FLPLLFFFFFRF | 0.377 ± 0.0075 | 0.292 ± 0.0066 | 0.391 ± 0.037 | 0.4846 ± 0.0032 | 0.569 ± 0.012 | 0.403 ± 0.022 | 0.479 ± 0.023 | 0.485 ± 0.008
CGGVQVWRVKVV | 0.657 ± 0.023 | 0.715 ± 0.012 | 0.605 ± 0.011 | 0.722 ± 0.0077 | 0.18 ± 0.016 | 0.221 ± 0.018 | 0.401 ± 0.0066 | 0.3403 ± 0.002
DLQTVGLTRFIV | 0.62 ± 0.031 | 0.7362 ± 0.0061 | 0.621 ± 0.022 | 0.714 ± 0.011 | 0.149 ± 0.015 | 0.193 ± 0.0044 | 0.353 ± 0.031 | 0.236 ± 0.071
VYDVSVGVAVVG | 0.44 ± 0.018 | 0.464 ± 0.041 | 0.34 ± 0.037 | 0.5196 ± 0.0031 | 0.291 ± 0.017 | 0.346 ± 0.025 | 0.48822 ± 0.00017 | 0.4567 ± 0.002
GEGISCLLRRLT | 0.662 ± 0.013 | 0.709 ± 0.018 | 0.661 ± 0.024 | 0.713 ± 0.036 | 0.2625 ± 0.00058 | 0.286 ± 0.022 | 0.544 ± 0.033 | 0.413 ± 0.057
